Test results: the supplement of paper PMC11316812
± gives the standard deviation of the averaged measurements.

Assays:
hTERT-HMEC = assay: percentage of EdU-negative (G0-arrested) nuclei per well, 72 h; higher = more G0 arrest; conditions: reference: sequence is the full UniProt precursor, the tested protein was the secreted form or ectodomain
MCF7 = assay: as above; conditions: reference: sequence is the full UniProt precursor, the tested protein was the secreted form or ectodomain
[1] = protein concentration 0.0225 µM
[2] = protein concentration 0.00525 µM
[3] = protein concentration 0.0525 µM
[4] = protein concentration 0.0155 µM
[5] = protein concentration 0.0214725 µM
[6] = protein concentration 0.214725 µM
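Also: secreted proteins added to cultured cells, EdU pulse at the end, nuclei found by Hoechst imaging, EdU status from nuclear versus surrounding ring intensity ratio, PBS as neutral control.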

MCSRGWDSCLALELLLLPLSLLVTSIQGHLVHMTVVSGSNVTLNISESLPENYKQLTWFYTFDQKIVEWDSRKSKYFESKFKGRVRLDPQSGALYISKVQKEDNSTYIMRVLKKTGNEQEWKIKLQVLDPVPKPVIKIEKIEDMDDNCYLKLSCVIPGESVNYTWYGDKRPFPKELQNSVLETTLMPHNYSRCYTCQVSNSVSSKNGTVCLSPPCTLARSFGVEWIASWLVVTVPTILGLLLT
percentage of EdU-negative (hTERT-HMEC; [1]): 4.77 ± 0.31% | percentage of EdU-negative (hTERT-HMEC; protein concentration 0.225 µM): 10.71 ± 0.089% | percentage of EdU-negative (MCF7; [1]): 25.8 ± 1.1% | percentage of EdU-negative (MCF7; protein concentration 0.225 µM): 27.8 ± 2%

MATFISVQLKKTSEVDLAKPLVKFIQQTYPSGGEEQAQYCRAAEELSKLRRAAVGRPLDKHEGALETLLRYYDQICSIEPKFPFSENQICLTFTWKDAFDKGSLFGGSVKLALASLGYEKSCVLFNCAALASQIAAEQNLDNDEGLKIAAKHYQFASGAFLHIKETVLSALSREPTVDISPDTVGTLSLIMLAQAQEVFFLKATRDKMKDAIIAKLANQAADYFGDAFKQCQYKDTLPKEVFPVLAAKHCIMQANAEYHQSILAKQQKKFGEEIARLQHAAELIKTVASRYDEYVNVKDFSDKINRALAAAKKDNDFIYHDRVPDLKDLDPIGKATLVKSTPVNVPISQKFTDLFEKMVPVSVQQSLAAYNQRKADLVNRSIAQMREATTLANGVLASLNLPAAIEDVSGDTVPQSILTKSRSVIEQGGIQTVDQLIKELPELLQRNREILDESLRLLDEEEATDNDLRAKFKERWQRTPSNELYKPLRAEGTNFRTVLDKAVQADGQVKECYQSHRDTIVLLCKPEPELNAAIPSANPAKTMQGSEVVNVLKSLLSNLDEVKKEREGLENDLKSVNFDMTSKFLTALAQDGVINEEALSVTELDRVYGGLTTKVQESLKKQEGLLKNIQVSHQEFSKMKQSNNEANLREEVLKNLATAYDNFVELVANLKEGTKFYNELTEILVRFQNKCSDIVFARKTERDELLKDLQQSIAREPSAPSIPTPAYQSSPAGGHAPTPPTPAPRTMPPTKPQPPARPPPPVLPANRAPSATAPSPVGAGTAAPAPSQTPGSAPPPQAQGPPYPTYPGYPGYCQMPMPMGYNPYAYGQYNMPYPPVYHQSPGQAPYPGPQQPSYPFPQPPQQSYYPQQ [Q8WUM4]
percentage of EdU-negative (hTERT-HMEC; [2]): 4.68 ± 0.54% | percentage of EdU-negative (hTERT-HMEC; [3]): 4.872 ± 0.012% | percentage of EdU-negative (MCF7; [2]): 24.7 ± 1.5% | percentage of EdU-negative (MCF7; [3]): 25.1 ± 1%

MRAAGTLLAFCCLVLSTTGGPSPDTCSQDLNSRVKPGFPKTIKTNDPGVLQAARYSVEKFNNCTNDMFLFKESRITRALVQIVKGLKYMLEVEIGRTTCKKNQHLRLDDCDFQTNHTLKQTLSCYSEVWVVPWLQHFEVPVLRCH
percentage of EdU-negative (hTERT-HMEC; [1]): 4.61 ± 0.72% | percentage of EdU-negative (hTERT-HMEC; protein concentration 0.225 µM): 4.863 ± 0.024% | percentage of EdU-negative (MCF7; [1]): 27.2 ± 0.74% | percentage of EdU-negative (MCF7; protein concentration 0.225 µM): 27.2 ± 1.1%

MAPARAGCCPLLLLLLGLWVAEVLVRAKPKDMTSSQWFKTQHVQPSPQACNSAMSIINKYTERCKDLNTFLHEPFSSVAITCQTPNIACKNSCKNCHQSHGPMSLTMGELTSGKYPNCRYKEKHLNTPYIVACDPPQQGDPGYPLVPVHLDKVV [Q8TDE3]
percentage of EdU-negative (hTERT-HMEC; [1]): 5.33 ± 0.52% | percentage of EdU-negative (hTERT-HMEC; protein concentration 0.225 µM): 5.09 ± 1.2% | percentage of EdU-negative (MCF7; [1]): 28.2 ± 0.91% | percentage of EdU-negative (MCF7; protein concentration 0.225 µM): 27.5 ± 4.3%

MVPEVRVLSSLLGLALLWFPLDSHARARPDMFCLFHGKRYSPGESWHPYLEPQGLMYCLRCTCSEGAHVSCYRLHCPPVHCPQPVTEPQQCCPKCVEPHTPSGLRAPPKSCQHNGTMYQHGEIFSAHELFPSRLPNQCVLCSCTEGQIYCGLTTCPEPGCPAPLPLPDSCCQACKDEASEQSDEEDSVQSLHGVRHPQDPCSSDAGRKRGPGTPAPTGLSAPLSFIPRHFRPKGAGSTTVKIVLKEKHKKACVHGGKTYSHGEVWHPAFRAFGPLPCILCTCEDGRQDCQRVTCPTEYPCRHPEKVAGKCCKICPEDKADPGHSEISSTRCPKAPGRVLVHTSVSPSPDNLRRFALEHEASDLVEIYLWKLVKGIFHLTQIKKVRKQDFQKEAQHFRLLAGPHEGHWNVFLAQTLELKVTASPDKVTKT [Q6WN34]
percentage of EdU-negative (hTERT-HMEC; [4]): 5.6 ± 0.62% | percentage of EdU-negative (hTERT-HMEC; protein concentration 0.155 µM): 7.92 ± 0.96% | percentage of EdU-negative (MCF7; [4]): 25.2 ± 1.1% | percentage of EdU-negative (MCF7; protein concentration 0.155 µM): 27.3 ± 1.6%

MIHGRSVLHIVASLIILHLSGATKKGTEKQTTSETQKSVQCGTWTKHAEGGIFTSPNYPSKYPPDRECIYIIEAAPRQCIELYFDEKYSIEPSWECKFDHIEVRDGPFGFSPIIGRFCGQQNPPVIKSSGRFLWIKFFADGELESMGFSARYNFTPDPDFKDLGALKPLPACEFEMGGSEGIVESIQIMKEGKATASEAVDCKWYIRAPPRSKIYLRFLDYEMQNSNECKRNFVAVYDGSSSVEDLKAKFCSTVANDVMLRTGLGVIRMWADEGSRNSRFQMLFTSFQEPPCEGNTFFCHSNMCINNTLVCNGLQNCVYPWDENHCKEKRKTSLLDQLTNTSGTVIGVTSCIVIILIIISVIVQIKQPRKKYVQRKSDFDQTVFQEVFEPPHYELCTLRGTGATADFADVADDFENYHKLRRSSSKCIHDHHCGSQLSSTKGSRSNLSTRDASILTEMPTQPGKPLIPPMNRRNILVMKHSYSQDAADACDIDEIEEVPTTSHRLSRHDKAVQRFCLIGSLSKHESEYNTTRV [Q8TDF5]
percentage of EdU-negative (hTERT-HMEC; [5]): 4.64 ± 0.48% | percentage of EdU-negative (hTERT-HMEC; [6]): 7.76 ± 0.38% | percentage of EdU-negative (MCF7; [5]): 23.53 ± 0.037% | percentage of EdU-negative (MCF7; [6]): 26.76 ± 0.058%
